This assay addresses T1, EcoR124I (Escherichia coli, UniProt P10484+P10485+P10486).
T1 sequence (P10485 1-404): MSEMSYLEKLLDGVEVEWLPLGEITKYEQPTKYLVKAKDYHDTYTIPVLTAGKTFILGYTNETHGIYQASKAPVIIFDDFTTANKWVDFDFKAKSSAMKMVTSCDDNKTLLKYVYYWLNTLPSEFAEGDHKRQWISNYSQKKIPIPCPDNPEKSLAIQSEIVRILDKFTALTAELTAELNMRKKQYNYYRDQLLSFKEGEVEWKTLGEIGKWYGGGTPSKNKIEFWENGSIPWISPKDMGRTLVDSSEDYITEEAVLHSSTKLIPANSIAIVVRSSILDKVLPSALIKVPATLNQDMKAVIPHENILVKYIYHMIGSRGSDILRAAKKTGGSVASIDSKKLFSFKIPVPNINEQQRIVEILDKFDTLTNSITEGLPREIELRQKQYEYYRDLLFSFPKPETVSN
T1 sequence (P10484 1-520): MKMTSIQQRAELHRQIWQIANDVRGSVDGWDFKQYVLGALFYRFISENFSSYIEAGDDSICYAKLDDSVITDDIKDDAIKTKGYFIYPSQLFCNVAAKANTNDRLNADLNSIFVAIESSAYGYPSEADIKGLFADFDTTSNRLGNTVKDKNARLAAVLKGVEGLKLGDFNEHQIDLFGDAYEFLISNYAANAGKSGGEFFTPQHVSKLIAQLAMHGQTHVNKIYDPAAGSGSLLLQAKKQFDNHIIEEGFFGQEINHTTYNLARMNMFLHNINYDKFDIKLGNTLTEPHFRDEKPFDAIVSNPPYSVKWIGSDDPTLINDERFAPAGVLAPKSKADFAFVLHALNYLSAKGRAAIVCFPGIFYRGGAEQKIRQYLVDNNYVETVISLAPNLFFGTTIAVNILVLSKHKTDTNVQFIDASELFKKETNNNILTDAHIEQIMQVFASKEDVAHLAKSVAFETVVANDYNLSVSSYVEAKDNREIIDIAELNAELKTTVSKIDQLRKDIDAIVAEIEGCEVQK
T1 sequence (P10486 1-1038): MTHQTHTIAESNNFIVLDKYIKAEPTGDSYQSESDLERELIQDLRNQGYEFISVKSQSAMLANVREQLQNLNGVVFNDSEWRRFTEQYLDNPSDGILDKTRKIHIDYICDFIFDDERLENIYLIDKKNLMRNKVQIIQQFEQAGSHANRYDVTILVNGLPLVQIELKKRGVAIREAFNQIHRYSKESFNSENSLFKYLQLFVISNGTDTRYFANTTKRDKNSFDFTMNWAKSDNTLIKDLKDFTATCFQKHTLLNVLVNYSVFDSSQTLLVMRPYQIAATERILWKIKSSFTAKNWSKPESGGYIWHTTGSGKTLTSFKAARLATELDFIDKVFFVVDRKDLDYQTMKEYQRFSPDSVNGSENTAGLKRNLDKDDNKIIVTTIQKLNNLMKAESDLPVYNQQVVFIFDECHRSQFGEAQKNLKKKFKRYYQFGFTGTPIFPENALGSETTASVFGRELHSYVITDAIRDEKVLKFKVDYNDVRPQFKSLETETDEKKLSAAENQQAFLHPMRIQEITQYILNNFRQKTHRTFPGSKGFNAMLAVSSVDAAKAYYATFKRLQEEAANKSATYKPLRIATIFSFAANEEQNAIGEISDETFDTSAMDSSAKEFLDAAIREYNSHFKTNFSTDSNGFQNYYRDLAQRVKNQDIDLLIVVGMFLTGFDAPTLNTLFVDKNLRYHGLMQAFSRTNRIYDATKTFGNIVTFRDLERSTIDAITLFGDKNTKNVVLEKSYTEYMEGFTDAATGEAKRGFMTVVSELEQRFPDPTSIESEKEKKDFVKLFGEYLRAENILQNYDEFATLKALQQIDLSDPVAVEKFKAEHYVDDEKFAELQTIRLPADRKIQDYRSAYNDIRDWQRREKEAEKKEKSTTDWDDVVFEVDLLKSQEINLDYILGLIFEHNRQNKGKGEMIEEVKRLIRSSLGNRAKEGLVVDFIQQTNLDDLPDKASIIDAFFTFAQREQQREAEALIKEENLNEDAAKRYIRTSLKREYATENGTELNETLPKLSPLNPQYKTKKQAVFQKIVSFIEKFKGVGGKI
Description: Coupled spectrophotometric ATPase assay. It is filed as biochemical. The following applies: EcoR124I pre-incubated with protein, reaction initiated by scDNA; Figure S1.

For “Ocr: anti-restriction protein of bacteriophage T7 (overcome classical restriction), mimics B-DNA”, the “Concentration at which ATP hydrolysis of EcoR124I is retarded / abolished” value amounted to 100 nM.

(Values after article PMC4699573 (Molecular bioSystems, 2016).)
